The target of assay [1] is RSV F peptide 51-66 (respiratory syncytial virus, A2 strain).
Assay [2] addresses RSV F peptides F85-93 and F249-258 (respiratory syncytial virus, A2 strain).

The substance “splenic T cells of unvaccinated BALB/c mice (cells without a defined receptor)” returned a CD4+ CD8- splenic T cells: % cytokine-positive, TNFa+ (intracellular cytokine immunofluorescence) in assay [1] of 0%. In assay [2], this substance came in with a CD8+ CD4- splenic T cells: % cytokine-positive, IFNg+ (intracellular cytokine immunofluorescence) of 0.01%.
Consider “splenic T cells of BALB/c mice vaccinated with naked self-replicating RNA A317 (cells without a defined receptor)”, for which the CD4+ CD8- splenic T cells: % cytokine-positive, TNFa+ (intracellular cytokine immunofluorescence) in assay [1] came out at 0.03%. In addition, in assay [2], the CD8+ CD4- splenic T cells: % cytokine-positive, IFNg+ (intracellular cytokine immunofluorescence) came to 0.74%.
On the same counts, the results for “splenic T cells of BALB/c mice vaccinated with A317 RNA formulated with CNE17 (cells without a defined receptor)” are 0.05% and 1.25%.
On the same counts, the results for “splenic T cells of BALB/c mice vaccinated with VRPs expressing RSV-F (cells without a defined receptor)” are 0.1% and 3.48%.
Regarding “splenic T cells of BALB/c mice vaccinated with A317 RNA in liposomes RV01(01) (cells without a defined receptor)”, the CD4+ CD8- splenic T cells: % cytokine-positive, TNFa+ (intracellular cytokine immunofluorescence) in assay [1] is 0.09%. Besides, the CD8+ CD4- splenic T cells: % cytokine-positive, IFNg+ (intracellular cytokine immunofluorescence) in assay [2] was determined as 3.69%.
The matching figures for “splenic T cells of BALB/c mice vaccinated with A317 RNA delivered using electroporation (cells without a defined receptor)”: 0.05% and 0.85%.

The values are drawn from patent publication US20230357370A1.
